The values below come from patent publication US20100136009A1 (DIADEXUS, published 2010).

T1: native Ovr110 protein on tumor cells (ZR-75-1, SKBR3, RL95.2, OVCAR3) (human, UniProt Q7Z7D3 25-282)
T1 sequence (looked up): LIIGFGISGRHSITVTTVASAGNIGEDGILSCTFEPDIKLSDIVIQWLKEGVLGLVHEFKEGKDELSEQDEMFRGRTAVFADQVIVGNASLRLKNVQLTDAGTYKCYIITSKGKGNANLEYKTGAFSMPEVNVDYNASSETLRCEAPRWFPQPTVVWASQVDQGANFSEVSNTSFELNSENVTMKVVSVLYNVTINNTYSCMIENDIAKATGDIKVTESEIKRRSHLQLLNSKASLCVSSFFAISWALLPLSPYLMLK

T2: Ovr110 (amino acids 1-282; Ovr110 Construct 1 without the 6-His tag) expressed on transiently transfected … (human, UniProt Q7Z7D3 25-282)
T2 construct: signal peptide not removed here
T2 sequence: T1 sequence (looked up)

T3: recombinant Ovr110-hFc encoded by Ovr110 Construct 2 (human)
T3 construct: Captured on plates by goat anti-human IgG Fc; also called Ovr110-hFc (with TM)
T3 chain: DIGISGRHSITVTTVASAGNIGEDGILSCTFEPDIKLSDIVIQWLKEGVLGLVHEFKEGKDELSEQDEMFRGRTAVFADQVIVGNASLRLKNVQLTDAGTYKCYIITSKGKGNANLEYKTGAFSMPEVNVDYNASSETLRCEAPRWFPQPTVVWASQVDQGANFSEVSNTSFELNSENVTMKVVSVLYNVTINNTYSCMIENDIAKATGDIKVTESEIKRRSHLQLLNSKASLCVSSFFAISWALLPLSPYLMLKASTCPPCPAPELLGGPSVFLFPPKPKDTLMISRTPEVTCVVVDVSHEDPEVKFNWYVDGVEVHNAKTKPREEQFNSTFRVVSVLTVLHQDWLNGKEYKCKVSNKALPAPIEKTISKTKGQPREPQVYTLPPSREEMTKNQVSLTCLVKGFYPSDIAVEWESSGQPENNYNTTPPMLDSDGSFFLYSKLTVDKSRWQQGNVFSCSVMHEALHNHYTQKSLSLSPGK

B1: Ovr110.Q19 (antibody, IgG1, V domains shown)
VH: DVLLQESGPGLVKASQSLSLTCSVTGYSITSGYFWNWIRQFPGNKLEWMGYISYDGGNSYNPSLKNRISITRDTSKNQFFLRMKSVTAEDTATYYCARKALWLRFDYWGQGTTLTVSS
VL: EIVLTQSPAIMSVYLGEKVTMTCSASLSVSYMHWYQQKSSTSPKLWIYDTSKVASGVPGRFSGSGSGNSYSLTISSMEAEDVATYYCFQGSGYPFTFGSGTKLEIKR
notes: Mouse hybridoma MAb; also called Q19.6; Ovr110.Q19.6
B2: Ovr110.Q23 (antibody, IgG1, V domains shown)
VH: QVQLQQSGAELMKPGASVKISCKATGYTFSSYWIEWVKQRPGHGLEWIGEILPGSGITKYNEKFKTKATFTADTSSNTAYMQLSSLTSEDSAVYYCARYYFGSVNFYFDCWGQGTTLTVSS
VL: QAVVTQESALTTSPGETVTLTCRSSTGAVTTSNYANWVQEKPDHLFTGLIGGTDNRPPGVPARFSGSLIGDKAALTITGTQTEDEAIYFCALWYSNHWVFGGGTKLTVLG
notes: Mouse hybridoma MAb; also called Q23.6
B3: Ovr110.Q12 (antibody, IgG1, V domains shown)
VH: QVQLQQPGAELVKPGATVKLSCKTSGYTFTSYWMHWVKQRPGQGLEWIGEIDPSDSYTNYNQKFKGKATLTVDTSSTTAYMQLSSLTSEDSAVYYCAREYGNNDAMDYWGQGTSVTVSS
VL: QIVLTQSPAIMSASPGEKVTMTCSASSGISYMHWYQQKPGTTPKRWIYDASKLASGVPSRFSGSGSGTSYSLTISSMEAEDAATYYCHQRRSYPFTFGSGTKLEIKR
notes: Mouse hybridoma MAb; also called Q12.2; Ovr110.Q12.2
B4: Ovr110.Q11 (antibody, V domains shown)
VH: B1 VH with L3Q, A14P, N36S, Y51F, G57T, M83L, K84N, A88K, A100L
VL: B1 VL with I2N, V13A, Y14S, L15P, L27S, V53L
notes: Mouse hybridoma MAb; also called Q11.12.3; Ovr110.Q11.12.3

Residue numbers refer to the chain shown, from its start.

Chain of transferrin receptor (TfnR, CD71) on cells (P02786 whole entry): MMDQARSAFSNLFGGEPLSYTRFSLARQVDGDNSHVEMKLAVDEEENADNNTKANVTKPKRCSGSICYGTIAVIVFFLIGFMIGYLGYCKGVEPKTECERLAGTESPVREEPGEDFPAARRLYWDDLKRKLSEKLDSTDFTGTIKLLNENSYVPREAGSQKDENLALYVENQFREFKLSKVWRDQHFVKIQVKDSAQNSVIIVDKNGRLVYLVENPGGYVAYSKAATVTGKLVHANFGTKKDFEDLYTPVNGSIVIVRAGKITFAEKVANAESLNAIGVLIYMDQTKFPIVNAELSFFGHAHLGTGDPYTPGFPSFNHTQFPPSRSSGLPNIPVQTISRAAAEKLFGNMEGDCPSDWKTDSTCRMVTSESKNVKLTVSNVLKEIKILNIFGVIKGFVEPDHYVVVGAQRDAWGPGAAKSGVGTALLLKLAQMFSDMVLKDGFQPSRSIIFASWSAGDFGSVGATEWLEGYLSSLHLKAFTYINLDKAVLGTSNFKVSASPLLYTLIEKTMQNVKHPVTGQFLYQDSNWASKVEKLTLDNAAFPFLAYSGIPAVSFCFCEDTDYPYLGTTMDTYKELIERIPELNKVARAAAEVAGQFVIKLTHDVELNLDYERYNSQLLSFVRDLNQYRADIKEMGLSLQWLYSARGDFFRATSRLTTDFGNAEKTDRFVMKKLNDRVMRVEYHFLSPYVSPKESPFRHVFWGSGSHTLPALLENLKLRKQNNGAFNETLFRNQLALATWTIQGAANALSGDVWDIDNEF

The first assay concerns the target transferrin receptor (TfnR, CD71) on cells (UniProt P02786). Description: cell-based or functional assay.
In the case of anti-TfnR MAb 5E9 (ATCC) (antibody), the Percentage growth compared to wells with media alone; HCT116; MAb 2.0 ug/mL with 1.0 ug/mL mAb-ZAP was found to be 24.9%, the Percentage growth compared to wells with media alone; SKBR3; MAb 0.4 ug/mL with 1.0 ug/mL mAb-ZAP stood at 18.4%, the Percentage growth compared to wells with media alone; SKBR3; MAb 2.0 ug/mL with 1.0 ug/mL mAb-ZAP is 44.6% and the Percentage growth compared to wells with media alone; ZR-75-1; MAb 0.4 ug/mL with 1.0 ug/mL mAb-ZAP worked out at 35%. The same molecule returned a Percentage growth compared to wells with media alone; ZR-75-1; MAb 2.0 ug/mL with 1.0 ug/mL mAb-ZAP of 49.3%.

The next assay addresses T1, native Ovr110 protein on tumor cells …. Description: cell-based or functional assay.
Consider B1, for which the “Percentage growth compared to wells with media alone; ZR-75-1; MAb 0.4 ug/mL with 1.0 ug/mL mAb-ZAP” value was determined as 28.1% and the “Percentage growth compared to wells with media alone; ZR-75-1; MAb 2.0 ug/mL with 1.0 ug/mL mAb-ZAP” value was determined as 46.5%.
Consider B2, for which the “Percentage growth compared to wells with media alone; ZR-75-1; MAb 0.4 ug/mL with 1.0 ug/mL mAb-ZAP” value is 37.5% and the “Percentage growth compared to wells with media alone; ZR-75-1; MAb 2.0 ug/mL with 1.0 ug/mL mAb-ZAP” value worked out at 45.5%.

Another assay shares this target. Description: cell-based or functional assay. The source holds these as a separate data set.
On to B1, for which the “Percentage growth compared to wells with media alone; SKBR3; MAb 0.4 ug/mL with 1.0 ug/mL mAb-ZAP” value stood at 49.8% and the “Percentage growth compared to wells with media alone; SKBR3; MAb 2.0 ug/mL with 1.0 ug/mL mAb-ZAP” value amounted to 25%.
For B2 the same measures were 68.9% and 73.6%.

For the next assay the target is unchanged. In words: flow cytometry; purified MAb; SKBR3 cells. A general note: A flow cytometer gives signals particle by particle.
Method: (§1) Cells from cultures selected for MAb staining were aliquoted at 0.5-1.0×10⁶ cells/well in 96-well v-bottom plates (VWR) and centrifuged for 2 minutes at 1500 rpm. Supernatants were aspirated and plates briefly shaken on a vortex mixer to resuspend the cells, then 200 uL of DPBS/3% FBS/0.01% Na Azide (FACS buffer) was added to each well. Centrifugation and aspiration was repeated, then 25 uL of sequential dilutions of hybridoma supernatant or purified MAb was added to the cells. Plates were stored on ice for 15 min., then washed and centrifuged as above, in 200 uL of FACS buffer. This washing procedure was repeated twice and then 25 uL of phycoerythrin (PE) conjugated donkey anti-mouse IgG Fc antibody (Jackson Immunoresearch Laboratories) were added to cells. After 15 minutes on ice the cells were washed twice, as above and then resuspended in 250 uL of FACS buffer for analysis on the cell sorter or flow cytometer. In certain cases, for storage overnight at 4° C. prior to analysis, 133 uL of FACS buffer and 67 uL of 1% paraformaldehyde/DPBS was added to each well, for fixation, then the volume was increased to 250 uL with DPBS. Stained cells were analyzed on an Elite fluorescent activated cell sorter (FACS) (Beckman-Coulter).
Consider B3, for which the “% Cells Positive” value was 95.3% and the MFI came to 4.86.
Take B1: the “% Cells Positive” value came out at 95.2% and the MFI amounted to 4.64.
For B4, in that order: 98.4% and 5.95.
For B2, the “% Cells Positive” value turned out to be 93.9% and the MFI stood at 3.85.

For another assay the target is unchanged. Description: flow cytometry; purified MAb; ZR-75-1 cells.
Method: as §1
For B3, the “% Cells Positive” value is 94.1% and the MFI turned out to be 3.76.
For B1, in that order: 95.6% and 4.11.
For B4, in that order: 96.4% and 4.68.
For B2, in that order: 92.7% and 3.25.

For a further assay the target is unchanged. In words: flow cytometry; hybridoma supernatant; SKBR3 cells.
Method: The following tumor cell lines were used: SKBR3, ZR-75-1 and HeLa.
as §1
In the case of B3, the “% Cells Positive” value was 98.8% and the “Mean Fluorescence Intensity (MFI)” value is 12.
Consider B1, for which the “% Cells Positive” value came to 98.9% and the “Mean Fluorescence Intensity (MFI)” value is 10.4.
For B4 the same measures were 98.7% and 9.71.
For B2, in that order: 97.1% and 4.35.

The next assay deals with T2, Ovr110 (amino acids 1-282; Ovr110 …). Description: flow cytometry; purified MAb; Ovr110-transfected 293F cells.
Method: The cells were then incubated for 5 minutes at 37° C. with tapping of the flask to remove tightly attached cells. The cells were removed and pipetted several times to break aggregates, then immediately placed in DMEM/10% FBS/5 mM sodium butyrate. The cells were then centrifuged down for 5 minutes at 1300 rpm and resuspended in DMEM/10% FBS/5 mM sodium butyrate. The cells were incubated at 37° C. for a 30 min recovery period. Prior to staining, viability of the cells was measured using Guava Viacount (Guava Cytometers, Foster City, Calif.) and cultures with >90% viability were selected for staining with MAbs.
as §1
For B3, the “% Cells Positive” value was determined as 94.3% and the MFI was 5.25.
For the molecule B1, the “% Cells Positive” value was determined as 91.9% and the MFI turned out to be 5.25.
For B4 the same measures were 93.8% and 5.47.
For B2 the same measures were 92.6% and 4.98.

Another assay shares this target. Description: flow cytometry; hybridoma supernatant; Ovr110-transfected 293F cells.
Method: 48 hours post-transfection, cells were washed once with 10 ml Ca⁺²/Mg⁺²free DPBS and then 7 ml of warm (37° C.) Cellstripper (Mediatech, Herndon, Va.) was added per 150 cm² flask. The cells were then incubated for 5 minutes at 37° C. with tapping of the flask to remove tightly attached cells. The cells were removed and pipetted several times to break aggregates, then immediately placed in DMEM/10% FBS/5 mM sodium butyrate. The cells were then centrifuged down for 5 minutes at 1300 rpm and resuspended in DMEM/10% FBS/5 mM sodium butyrate. The cells were incubated at 37° C. for a 30 min recovery period. Prior to staining, viability of the cells was measured using Guava Viacount (Guava Cytometers, Foster City, Calif.) and cultures with >90% viability were selected for staining with MAbs.
Cells from cultures selected for MAb staining were aliquoted at 0.5-1.0×10⁶ cells/well in 96-well v-bottom plates (VWR) and centrifuged for 2 minutes at 1500 rpm. Supernatants were aspirated and plates briefly shaken on a vortex mixer to resuspend the cells, then 200 uL of DPBS/3% FBS/0.01% Na Azide (FACS buffer) was added to each well. Centrifugation and aspiration was repeated, then 25 uL of sequential dilutions of hybridoma supernatant or purified MAb was added to the cells. Plates were stored on ice for 15 min., then washed and centrifuged as above, in 200 uL of FACS buffer. This washing procedure was repeated twice and then 25 uL of phycoerythrin (PE) conjugated donkey anti-mouse IgG Fc antibody (Jackson Immunoresearch Laboratories) were added to cells. After 15 minutes on ice the cells were washed twice, as above and then resuspended in 250 uL of FACS buffer for analysis on the cell sorter or flow cytometer.
With B3, the “% Cells Positive” value came to 96.6% and the “Mean Fluorescence Intensity (MFI)” value was found to be 31.8.
For B1, in that order: 95.7% and 24.5.
For B4, in that order: 95.7% and 26.
Take B2: the “% Cells Positive” value was determined as 94.7% and the “Mean Fluorescence Intensity (MFI)” value is 17.9.

For the next assay, the target named is T1, native Ovr110 protein on tumor cells …. In words: flow cytometry titration of fluorescein-labeled MAb on ZR75-1 cells; one-site fit.
Method: Labeled antibodies were incubated with 100,000 ZR75-1 cells in FACS buffer for 2 hours at room temperature. […] Cells were washed twice in FACS buffer to remove unbound antibody and the mean fluorescence intensity (MFI) of cells was analyzed by flow cytometry. MFI values generated by a negative control antibody were subtracted from MFI values generated by anti-Ovr110 antibodies at equivalent antibody concentrations. Binding curves (net MFI values plotted against the antibody concentration) were analyzed with the software Prism (GraphPad). The dissociation constant KD was calculated by nonlinear regression assuming a one-site binding model.
Molecule B3 yielded a Kd of 0.64 nM. That is a sub-nanomolar value.
Regarding B1, the Kd was 0.53 nM.
The same measure, in the same setting: next, B4: 0.74 nM; B2: 5.66 nM.

A further assay concerns the target T3, recombinant Ovr110-hFc encoded by …. In words: competition ELISA; row = unlabeled blocking MAb; competitor = biotinylated detecting MAb C6.3. On the technique in general: In an ELISA, binding on a coated surface is turned into a signal by an enzyme label.
Method: (§2) Recombinant Ovr110 was coated on plates as described in the Sandwich ELISA protocol above. Wells were filled with 50 uL unlabeled antibody (“blocking antibody”) at 20 ug/mL in TBST/BSA and incubated for 30 min. Fifty uL/well biotinylated antibody (“detecting antibody”) at 2 ug/mL was added and plates incubated for 15 min. […] After 30 min incubation, plates were washed with TBST and 100 uL/well of HRP substrate 3,3′,5,5′-tetramethyl benzidine (#S1599; Dako Cytomation, Carpinteria, Calif.) were added. The reaction was stopped by adding 100 uL 1N hydrochloric acid. The enzymatic reaction was quantified by measuring the solution's absorbance at 450 nm wavelength.
(§3) Each antibody was tested as both a blocking and detecting antibody, in all possible combinations.
As for B3, the signal/noise ratio turned out to be 1.2.
For the molecule B1, the signal/noise ratio amounted to 1.2.
With B4, the signal/noise ratio was found to be 1.2.
On the same count and under the same terms, as for B2, the figure is 1.2.

A further assay shares this target. Description: competition ELISA; row = unlabeled blocking MAb; competitor = biotinylated detecting MAb Q3.1.
Method: as §2, §3
As for B3, the signal/noise ratio turned out to be 1.4.
On the same count and under the same terms, next, B1: 1.3; B4: 1.3.
Consider B2, for which the signal/noise ratio came out at 1.4.

The next assay shares this target. In words: competition ELISA; row = unlabeled blocking MAb; competitor = biotinylated detecting MAb A87.1.
Method: as §2, §3
As for B3, the signal/noise ratio was 6.7.
Consider B1, for which the signal/noise ratio is 6.6.
Turning to B4, the signal/noise ratio came out at 6.4.
As for B2, the signal/noise ratio was determined as 6.7.

A further assay has the same target. Description: competition ELISA; row = unlabeled blocking MAb; competitor = biotinylated detecting MAb Q12.2.
Method: as §2, §3
As to B3, the signal/noise ratio was determined as 1.
On to B1, for which the signal/noise ratio came out at 1.1.
With B4, the signal/noise ratio is 1.
Same read-out and setting: next, B2: 2.8.

A further assay has the same target. Description: competition ELISA; row = unlabeled blocking MAb; competitor = biotinylated detecting MAb Q15.2.
Method: as §2, §3
As to B3, the signal/noise ratio turned out to be 11.6.
For the molecule B1, the signal/noise ratio was 11.7.
On the same count and under the same terms, next, B4: 11.7; B2: 2.9.

Another assay shares this target. Description: competition ELISA; row = unlabeled blocking MAb; competitor = biotinylated detecting MAb Q19.6.
Method: as §2, §3
For the molecule B3, the signal/noise ratio turned out to be 1.1.
For the molecule B1, the signal/noise ratio is 1.
Consider B4, for which the signal/noise ratio is 1.
The same measure, in the same setting: next, B2: 6.

A further assay has the same target. Description: competition ELISA; row = unlabeled blocking MAb; competitor = biotinylated detecting MAb Q23.6.
Method: as §2, §3
Take B3: the signal/noise ratio worked out at 3.6.
On the same count and under the same terms, next, B1: 4.8.
On the same count and under the same terms, next, B4: 4.5; B2: 1.

The next assay shares this target. In words: competition ELISA; row = unlabeled blocking MAb; competitor = biotinylated detecting MAb Q27.4.
Method: as §2, §3
Regarding B3, the signal/noise ratio stood at 4.3.
Consider B1, for which the signal/noise ratio turned out to be 4.7.
With B4, the signal/noise ratio amounted to 4.7.
For B2, the signal/noise ratio stood at 2.2.

For another assay the target is unchanged. In words: competition ELISA; row = unlabeled blocking MAb; competitor = biotinylated detecting MAb Q11.12.3.
Method: as §2, §3
Regarding B3, the signal/noise ratio is 1.2.
Same read-out and setting: next, B1: 1.
B4: the signal/noise ratio worked out at 1.
Same read-out and setting: next, B2: 5.2.

Broadly, the Kd is the concentration at which binding is half-saturated.
